Laboratory results from publication PMC5716189, “Characterization of the APLF FHA–XRCC1 phosphopeptide interaction and its structural and functional implications” (Nucleic Acids Research, 2017).
Blank lines part the entries; values can stand above or below the substance they belong to.

Key:
[1] = target: XRCC1 tetraphosphorylated peptide (Homo sapiens) (UniProt P18887); settings: cited from earlier work
XRCC1 (Homo sapiens) = XRCC1 (Homo sapiens) (UniProt P18887); test: fluorescence; settings: cited from earlier work
XRCC1 (Homo sapiens), sequence (P18887 whole entry): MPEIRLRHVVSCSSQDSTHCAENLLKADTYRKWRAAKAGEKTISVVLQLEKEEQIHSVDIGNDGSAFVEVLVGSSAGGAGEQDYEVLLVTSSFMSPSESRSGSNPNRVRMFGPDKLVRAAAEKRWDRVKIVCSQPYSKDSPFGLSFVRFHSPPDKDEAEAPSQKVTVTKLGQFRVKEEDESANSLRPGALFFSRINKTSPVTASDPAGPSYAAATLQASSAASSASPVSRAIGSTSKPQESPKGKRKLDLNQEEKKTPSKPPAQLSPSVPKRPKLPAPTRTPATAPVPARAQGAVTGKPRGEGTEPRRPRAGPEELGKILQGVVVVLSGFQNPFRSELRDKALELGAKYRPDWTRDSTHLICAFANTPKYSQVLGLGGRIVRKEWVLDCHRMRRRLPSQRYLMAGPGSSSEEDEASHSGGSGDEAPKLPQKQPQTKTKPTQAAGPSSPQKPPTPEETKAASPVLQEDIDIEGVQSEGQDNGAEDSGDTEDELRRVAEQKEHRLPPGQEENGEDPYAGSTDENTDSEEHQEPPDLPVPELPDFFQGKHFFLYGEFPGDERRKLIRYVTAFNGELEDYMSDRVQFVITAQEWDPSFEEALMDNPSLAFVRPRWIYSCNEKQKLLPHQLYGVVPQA

[2] = target: XRCC1pSpT-18 (unlabelled, NMR samples) none (pSer518; pThr519) (UniProt P18887); test: 1H,15N-HSQC titration with 1H lineshape simulation (500 MHz); settings: pH 7.4, 35°C, 150 mM NaCl, 25 mM HEPES, 25 mM MES
XRCC1pSpT-18 (unlabelled, NMR samples) none (pSer518; pThr519), sequence (P18887 whole entry): as above

[3] = target: XRCC1pSpT-9 none (pSer518; pThr519) (UniProt P18887); test: 1D 31P NMR pH titration of the free phosphopeptide (600 MHz); settings: pH 4.0-8.5, 35°C, no added NaCl (50 mM sodium acetate, 50 mM sodium cacodylate)
XRCC1pSpT-9 none (pSer518; pThr519), sequence (P18887 whole entry): as above

[4] = target: XRCC4pSpT-12 none (pSer232; pThr233) (UniProt Q13426); test: as above; settings: pH 4.0-8.5, 35°C, no added NaCl (50 mM sodium acetate, 50 mM sodium cacodylate)
XRCC4pSpT-12 none (pSer232; pThr233), sequence (Q13426 whole entry): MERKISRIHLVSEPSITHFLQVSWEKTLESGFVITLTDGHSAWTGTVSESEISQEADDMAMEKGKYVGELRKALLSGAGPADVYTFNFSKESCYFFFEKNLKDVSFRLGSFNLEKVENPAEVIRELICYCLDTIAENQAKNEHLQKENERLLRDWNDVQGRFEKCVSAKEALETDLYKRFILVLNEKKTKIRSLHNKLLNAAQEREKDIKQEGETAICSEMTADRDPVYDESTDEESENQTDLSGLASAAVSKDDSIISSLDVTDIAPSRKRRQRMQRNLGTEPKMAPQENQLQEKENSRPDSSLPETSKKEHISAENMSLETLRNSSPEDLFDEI

XRCC1 tetraphosphorylated peptide (Homo sapiens), sequence (P18887 whole entry): as the sequence (P18887 whole entry) above

Substance: PNKP FHA (from UniProt Q96T60)
Kd [1]: 0.14 µM
Kd (XRCC1 (Homo sapiens)): 0.0035 µM

τB (lifetime of the protein-peptide complex) [2]: 0.9 ms
Substance: U-[15N] APLF FHA domain

pK, pSer518 phosphate of XRCC1pSpT-9 [3]: 6.56 pH units
pK, pThr519 phosphate of XRCC1pSpT-9 [3]: 6.86 pH units
pK, pSer232 phosphate of XRCC4pSpT-12 [4]: 6.9 pH units
pK, pThr233 phosphate of XRCC4pSpT-12 [4]: 7.22 pH units
Substance: APLF FHA domain
